Bridge positions count the residues as written; N and C are the ends. Square brackets hold non-standard residues; d marks the D form. Ends that are not written are not given here. Oic = O=C(O)[C@@H]1C[C@@H]2CCCC[C@@H]2N1; Phe(2-Br) = N[C@@H](Cc1ccccc1Br)C(=O)O; NMeI = CC[C@H](C)[C@H](NC)C(=O)O; tBuAla = CC(C)(C)C[C@H](N)C(=O)O; Pen = CC(C)(S)[C@H](N)C(=O)O; NMeC = CN[C@@H](CS)C(=O)O; Sar = CNCC(=O)O
T1: recombinant human MASP1 active protease (amino acids 297-699, C-terminal His Tag) (human, UniProt P48740 297-699)
T1 sequence: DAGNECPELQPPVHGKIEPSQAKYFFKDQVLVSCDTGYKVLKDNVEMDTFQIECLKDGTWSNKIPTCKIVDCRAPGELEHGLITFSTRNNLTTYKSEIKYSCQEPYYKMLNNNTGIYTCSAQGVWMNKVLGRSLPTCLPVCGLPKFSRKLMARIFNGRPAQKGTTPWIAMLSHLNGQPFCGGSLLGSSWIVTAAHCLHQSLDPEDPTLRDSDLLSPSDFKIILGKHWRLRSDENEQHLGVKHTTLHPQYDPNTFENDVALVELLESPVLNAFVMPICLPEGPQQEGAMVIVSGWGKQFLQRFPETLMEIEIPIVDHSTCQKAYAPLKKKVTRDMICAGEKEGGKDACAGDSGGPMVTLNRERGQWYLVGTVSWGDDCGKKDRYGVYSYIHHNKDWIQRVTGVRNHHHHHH


Key:
[1] = target: T1, recombinant human MASP1 active protease …; assay: cell-based or functional assay
[2] = target: recombinant human MASP2 active protease (amino acids 297-686, C-terminal His Tag) (human, UniProt O00187 297-686); assay: cell-based or functional assay
Chain of recombinant human MASP2 active protease (amino acids 297-686, C-terminal His Tag) (O00187 other isoform, or with tags, fused parts or gaps limits assumed): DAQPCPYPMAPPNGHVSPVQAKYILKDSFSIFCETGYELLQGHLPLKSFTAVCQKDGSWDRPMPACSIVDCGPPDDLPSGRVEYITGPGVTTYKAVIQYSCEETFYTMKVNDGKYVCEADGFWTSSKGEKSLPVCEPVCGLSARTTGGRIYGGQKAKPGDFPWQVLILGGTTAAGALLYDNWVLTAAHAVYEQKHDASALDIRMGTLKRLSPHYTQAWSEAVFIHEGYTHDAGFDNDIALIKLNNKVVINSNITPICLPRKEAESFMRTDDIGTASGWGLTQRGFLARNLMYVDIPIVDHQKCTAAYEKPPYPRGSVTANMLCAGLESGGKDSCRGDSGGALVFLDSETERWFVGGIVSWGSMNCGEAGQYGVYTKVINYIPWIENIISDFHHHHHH

| Binder | human MASP1 IC50 [1] [nM] | human MASP2 IC50 [2] [nM] |
| --- | --- | --- |
| [Sar][NMeI]CSRS[tBuAla]PPI[Pen]I-NH2 (disulfide 3-11; N-terminus assumed; SMILES CC[C@H](C)[C@H](NC(=O)[C@H]1NC(=O)[C@H]([C@@H](C)CC)NC(=O)[C@@H]2CCCN2C(=O)[C@@H]2CCCN2C(=O)[C@H](CC(C)(C)C)NC(=O)[C@H](CO)NC(=O)[C@H](CCCNC(=N)N)NC(=O)[C@H](CO)NC(=O)[C@@H](NC(=O)[C@H]([C@@H](C)CC)N(C)C(=O)CNC)CSSC1(C)C)C(N)=O) [((N-Me)G)-((N-Me)I)-C+SRS-((tBu)A)-PPI-(Pen)+I-NH2] | 2.7 | 320 |
| AICSRS[tBuAla]PPI[Pen]IPD-NH2 (disulfide 3-11; N-terminus assumed; SMILES CC[C@H](C)[C@H](NC(=O)[C@H](C)N)C(=O)N[C@H]1CSSC(C)(C)[C@@H](C(=O)N[C@H](C(=O)N2CCC[C@H]2C(=O)N[C@@H](CC(=O)O)C(N)=O)[C@@H](C)CC)NC(=O)[C@H]([C@@H](C)CC)NC(=O)[C@@H]2CCCN2C(=O)[C@@H]2CCCN2C(=O)[C@H](CC(C)(C)C)NC(=O)[C@H](CO)NC(=O)[C@H](CCCNC(=N)N)NC(=O)[C@H](CO)NC1=O) [AIC+SRS-((tBu)A)-PPI-(Pen)+IPD-NH2] | 2.6 | 83 |
| AICSRS[Phe(2-Br)]PPI[Pen]IPD-NH2 (disulfide 3-11; N-terminus assumed; SMILES CC[C@H](C)[C@H](NC(=O)[C@H](C)N)C(=O)N[C@H]1CSSC(C)(C)[C@@H](C(=O)N[C@H](C(=O)N2CCC[C@H]2C(=O)N[C@@H](CC(=O)O)C(N)=O)[C@@H](C)CC)NC(=O)[C@H]([C@@H](C)CC)NC(=O)[C@@H]2CCCN2C(=O)[C@@H]2CCCN2C(=O)[C@H](Cc2ccccc2Br)NC(=O)[C@H](CO)NC(=O)[C@H](CCCNC(=N)N)NC(=O)[C@H](CO)NC1=O) [AIC+SRS-((2-Bromo)F)-PPI-(Pen)+IPD-NH2] | 2.8 | 48 |

Continued, values first:

| human MASP1 IC50 [1] [nM] | human MASP2 IC50 [2] [nM] | Binder |
| --- | --- | --- |
| 2.6 | 92 | [dA]ICSRSLP[Oic]I[Pen]I-OH (disulfide 3-11; N-terminus assumed; SMILES CC[C@H](C)[C@H](NC(=O)[C@H]1NC(=O)[C@H]([C@@H](C)CC)NC(=O)[C@@H]2C[C@@H]3CCCC[C@@H]3N2C(=O)[C@@H]2CCCN2C(=O)[C@H](CC(C)C)NC(=O)[C@H](CO)NC(=O)[C@H](CCCNC(=N)N)NC(=O)[C@H](CO)NC(=O)[C@@H](NC(=O)[C@@H](NC(=O)[C@@H](C)N)[C@@H](C)CC)CSSC1(C)C)C(=O)O) [aIC+SRSLP-(Oic)-I-(Pen)+I-OH] |
| 2.8 | 2800 | AICSRSLP[rel‑(1R,3R,5R,6R)‑6‑(Trifluoromethyl)‑2‑azabicyclo(3.1.0)hexane‑3‑carboxylic acid]ICIPD-NH2 (disulfide 3-11) |
| 2.8 | 230 | SICSRS[tBuAla]PPI[NMeC]I-NH2 (disulfide 3-11; N-terminus assumed; SMILES CC[C@H](C)[C@H](NC(=O)[C@@H]1CSSC[C@H](NC(=O)[C@@H](NC(=O)[C@@H](N)CO)[C@@H](C)CC)C(=O)N[C@@H](CO)C(=O)N[C@@H](CCCNC(=N)N)C(=O)N[C@@H](CO)C(=O)N[C@@H](CC(C)(C)C)C(=O)N2CCC[C@H]2C(=O)N2CCC[C@H]2C(=O)N[C@@H]([C@@H](C)CC)C(=O)N1C)C(N)=O) [SIC+SRS-((tBu)A)-PPI-((N-Me)C)+I-NH2] |

— patent publication US20210246166A1 (Bayer, published 2021)
